Laboratory results reported in paper PMC3819817.
Values joined by “and” are separate entries in the source; they are usually repeats but may differ in a detail not shown here. Equal entries are not always repeated. Where two headings read alike, the source gives them in different places.

Columns and labels:
[1] = target: recombinant Arabidopsis thaliana Nfu2 without the plastidial targeting sequence (Arabidopsis thaliana) (UniProt Q93W20); experiment: SEC
[2] = target: recombinant Arabidopsis thaliana Nfu2 without the plastidial targeting sequence (Arabidopsis thaliana) (UniProt Q93W20); experiment: SEC; remark: listed apart in the source

stoichiometry N [1]: 4 and 2 | stoichiometry N [2]: 2
Substance: recombinant Arabidopsis thaliana Nfu2 without the plastidial targeting sequence (from UniProt Q93W20 73-235) (natural protein)
